From patent publication US20250145697A1 (WASHINGTON UNIVERSITY, published 2025)

B1: HJ156 (antibody, V domains shown)
VH: QVQLQQSGPELVKPGASVKISCKASGYIFTDYYINWVKRRPGQGLEWIGWIFPGSGVSYYNEQFKGKATLTVDKPSNTAYIFLSRLTSEDSAVYFCARYYSSSPFAYWGQGTLVTVSA
VL: DVLMTQTPLSLPVSLGDQASISCRSSQNIIHSNGNTYLEWFLQRPGQSPELLIYKVSNRFSGVPDRFSGSGSGTDFTLKISRVEAEDLGVYYCFQGSHVPYTFGGGTKLEIKR
notes: murine monoclonal antibody from hybridoma; also called HJ156B (biotinylated)
B2: HJ154 (antibody, V domains shown)
VH: QVQLQQPGTEFVMSGASVMLSCKASGYIFTNYWLHWVKQRPGHGLEWIGEIDPSDSYSICNDNFKGKSTLTVDKSSSTAYMQLSSLTSEDSAVYYCAGSLGRVGLAYWGQGTLVTVST
VL: QIVLTQSPAIMSASPGEKVTMSCSASSSVSNMYWYQQKPGSSPKSWIYRTSNLASGVPARFSGSGSGTSYSLTISNMEAEDAATYYCQHYQNYPLTFGAGTKLELKR
notes: murine monoclonal antibody from hybridoma; also called HJ154B (biotinylated)

Tests used:
[1] = target: T1, recombinant alipidated human ApoE3 (human, UniProt P02649 19-317); experiment: ELISA, plate coated with 0.5 ug/ml recombinant apoE3, HRP goat anti-mouse detection, OD450
T1 construct: mature; full length recombinant protein made in E. coli or bought
Procedure: ELISA plates were coated with 0.5 μg/ml of recombinant apoE2 (square), apoE3 (open circle), or apoE4 (closed circle). Then different concentrations of (A) HJ151, (B) HJ153, (C) HJ154, or (D) HJ156 were loaded on the plates. Horse-radish peroxidase labeled goat anti-mouse secondary antibodies were used to detect binding. […] HJ151 is specific for ApoE4 and HJ156 binds only ApoE3 and ApoE4. FIG. 5E-H are graphs depicting surface plasmon resonance profiles for various antibodies. Anti-ApoE antibodies were serially diluted 3-fold (starting at 100 nM for HJ153 (E), and 1000 nM for HJ151 (F), and […] (G)) for detection of binding to biotinylated-recombinant apoE4 captured on a streptavidin chip. Samples were injected at a flow rate of 30 μl/minute. (H) Apparent KD values of HJ151, HJ153 and HJ156 were calculated based on the SPR experiment.
ELISA plates were coated with 0.5 μg/ml of recombinant apoE2, apoE3, or apoE4. Then different concentrations of HJ151 (FIG. 5A), HJ153 (FIG. 5B), HJ154 (FIG. 5C), or HJ156 (FIG. 5D) were loaded on the plates. Horse-radish peroxidase labeled goat anti-mouse secondary antibodies were used to detect binding. […] HJ151 is specific for ApoE4 and HJ156 binds only ApoE3 and ApoE4. Surface plasmon resonance profiles for various antibodies was also performed.

[2] = target: T2, heat-induced aggregates of ApoE4 (human, UniProt P02649 19-317); experiment: ELISA: ApoE4 incubated at 40 C for 24 h, no denaturant, on the plate, HJ156 titrated, OD650
T2 construct: mature; aggregated state of the recombinant protein; also called ApoE4 incubated at 40 C for 24 hr; heat-treated ApoE4
T2 sequence (P02649 19-317 C130R): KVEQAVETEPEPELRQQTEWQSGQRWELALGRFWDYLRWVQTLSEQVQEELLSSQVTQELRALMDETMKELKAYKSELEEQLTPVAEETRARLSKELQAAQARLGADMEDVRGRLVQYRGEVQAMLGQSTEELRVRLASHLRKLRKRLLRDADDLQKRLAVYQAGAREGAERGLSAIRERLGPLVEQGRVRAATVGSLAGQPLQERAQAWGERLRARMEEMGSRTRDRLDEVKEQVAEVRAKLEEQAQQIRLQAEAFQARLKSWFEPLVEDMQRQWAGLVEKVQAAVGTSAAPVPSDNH
Procedure: 1: untreated ApoE4. 2: ApoE4 that has been incubated at 40° C. for 24 hr. Supernatant(S) and pellet (P) from ultracentrifugation were resolved on SDS-PAGE and stained by Coomassie blue. (D) Binding of HJ156 to different preparations of ApoE4 loaded at the same concentration on the ELISA plate. Sup of untreated: Supernatant fraction of untreated ApoE4 from ultracentrifugation. Sup/Pel of 24h 40C: Supernatant/pellet fraction of ApoE4 incubated at 40° C. for 24 hour. (E) Binding of HJ156 to untreated and 40° C. incubated ApoE4 with and without denaturation by 1% SDS or 4M guanidine HCl.
In order to test whether HJ151 and HJ156 bind to some form of ApoE in the brain, unfixed frozen brain sections from APPPS1/APOE4 or APPPS1/EKO mice using HJ151 and HJ156 (FIG. 38A). The presence of Aβ plaques was confirmed with Aβ immunostaining using anti-Aβ antibody HJ3.4 on the sections from the same brain. […] Next, the ability of HJ156 to bind to an aggregated form of ApoE induced by incubation at 40° C. was queried. The binding of untreated ApoE to HJ151, HJ153 or HJ156 was compared to the binding of ApoE incubated at 40° C. to HJ151, HJ153 or HJ156. HJ153 bound to untreated ApoE or ApoE incubated at 40° C. similarly while HJ151 and HJ156 preferentially bound to ApoE incubated at 40° C. (FIG. 38B). […] Solubilization of the ApoE aggregates reduced their binding to HJ156. […]

[3] = target: T3, recombinant alipidated human ApoE2 (human, UniProt P02649 19-317); experiment: direct ELISA on coated recombinant alipidated ApoE (0.5 ug/ml)
T3 construct: mature; full length recombinant protein made in E. coli or bought
T3 sequence (P02649 19-317 R176C): as the sequence (P02649 19-317 C130R) above, with R112C, R158C counted along it
In short: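 Antibody dose-response curves were built by HRP-conjugated goat anti-mouse IgG detection of anti-ApoE antibodies bound to blocked plates. The coat was full-length alipidated recombinant ApoE at 0.5 μg/ml, applied overnight, either E. coli-expressed and purified or commercially sourced.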

[4] = target: T4, heat-induced aggregates of ApoE2 (human, UniProt P02649 19-317); experiment: ELISA: pellet of heat-aggregated ApoE2 coated at 0.5 ug/ml, antibody titrated, HRP goat anti-mouse IgG, OD650
T4 construct: mature; aggregated state of the recombinant protein; also called heat treated ApoE2
T4 sequence (P02649 19-317 R176C): as the sequence (P02649 19-317 C130R) above, with R112C, R158C counted along it
Procedure: The aggregated ApoE was induced by incubating ApoE at 1 mg/ml concentration at 40° C. for 24 hours. The aggregates then were recovered in the pellet fraction following ultracentrifugation at 186,000 g for 1 hour. For ELISA, the untreated ApoE or heat-induced aggregates of ApoE were coated directly to ELISA plates at 0.5 μg/ml overnight at 4° C. After three washes with PBS, the wells were blocked with 1% BSA-PBS for 1 hour at room temperature with shaking at 500 rpm. The blocked wells were washed once with PBS and subsequently loaded with antibodies at serial concentrations (starting at 100 nM with 5-fold dilutions thereafter). Bound antibodies were detected with HRP-labeled goat anti-mouse IgG (Jackson Immunoresearch) and visualized with TMB substrate at OD₆₅₀ (reaction stopped with BioFX stop solution).

Row | Binder | EC50 (read off the curve) [1] [nM] | EC50 (read off the curve) [2] [nM] | EC50 [3] [nM] | EC50 (read off the curve) [4] [nM]
1 | B1 | ~0.9 | ~0.1 |  | 
2 | B2 |  |  | 0.25 | 0.16 to 0.2
